Measured values published in US20150202273A1 (SHENZHEN INNOVATION IMMUNOTECHNOLOGY, published 2015).

Target: HLA-A2 molecules on T2 cells (human)
Assay: cell-based or functional assay

IFN-γ release (ELISA) by expanded peptide-specific T cells in response to T2 cells pre-loaded with titrated peptide (0-20 µg/ml), 5 µg/mL:
ILANIYLLV [PSGR3]
WLAFPLCSL [PSGR4]
VILANIYLLV [PSGR14]
